The labels stand for the following.
T1: Soluble CDCP1 extracellular domain (CDCP1-ECD) (SEQ ID NO:30) fused to Streptavidin Binding Protein (SBP) (human, UniProt Q9H5V8 30-663)
T1 construct: also called SBP-CDCP1-ECD
T1 sequence: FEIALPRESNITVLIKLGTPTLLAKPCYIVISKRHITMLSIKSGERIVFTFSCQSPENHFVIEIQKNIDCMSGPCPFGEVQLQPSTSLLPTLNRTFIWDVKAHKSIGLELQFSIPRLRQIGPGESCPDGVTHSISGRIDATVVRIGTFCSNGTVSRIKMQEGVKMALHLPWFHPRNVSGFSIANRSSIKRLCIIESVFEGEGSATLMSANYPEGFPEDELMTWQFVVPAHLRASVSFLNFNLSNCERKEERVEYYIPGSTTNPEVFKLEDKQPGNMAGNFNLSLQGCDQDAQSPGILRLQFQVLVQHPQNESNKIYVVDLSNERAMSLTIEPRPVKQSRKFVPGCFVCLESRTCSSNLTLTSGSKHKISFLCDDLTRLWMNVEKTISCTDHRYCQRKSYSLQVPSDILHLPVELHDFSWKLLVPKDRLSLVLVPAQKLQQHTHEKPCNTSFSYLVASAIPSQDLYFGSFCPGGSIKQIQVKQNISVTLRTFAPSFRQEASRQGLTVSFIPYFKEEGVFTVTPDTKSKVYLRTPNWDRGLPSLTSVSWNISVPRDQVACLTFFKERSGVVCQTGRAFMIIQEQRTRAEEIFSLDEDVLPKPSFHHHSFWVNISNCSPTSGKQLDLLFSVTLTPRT

B1: hHC4-a / hLC4-e (antibody, V domains shown)
VH: EVQLVESGGGLVKPGGSLRLSCAASGFTFNSYGMSWVRQAPGKGLEWVSTISSGGSYTYYPDSVKGRFTISRDNAKNSLYLQMNSLRAEDTAVYYCARHPDYDGVWFAYWGQGTLVTVSS
VL: DIQMTQSPSSLSASVGDRVTITCSVSSSVFYVHWYQQKPGKAPKLLIYDTSKLASGVPSRFSGSGSGTDFTFTISSLQPEDIATYYCQQWNSNPPTFGGGTKVEIK
B2: hHC4-04 / hLC4-e (antibody, V domains shown)
VH: EVQLLESGGGLVQPGGSLRLSCAASGFTFNSYGMSWVRQAPGKGLEWVSTISSGGSYTYYPDSVKGRFTISRDNSKNTLYLQMNSLRAEDTAVYYCARHPDYDGVWFAYWGQGTLVTVSS
VL: DIQMTQSPSSLSASVGDRVTITCSVSSSVFYVHWYQQKPGKAPKLLIYDTSKLASGVPSRFSGSGSGTDFTFTISSLQPEDIATYYCQQWNSNPPTFGGGTKVEIK
B3: hHC4-I / hLC4-e (antibody, V domains shown)
VH: EVQLLESGGGLVQPGGSLRLSCAASGFTFNSYAMSWVRQAPGKGLEWVSAISSGGSYTYYADSVKGRFTISRDNSKNTLYLQMNSLRAEDTAVYYCAKHPDYDGVWFAYWGQGTLVTVSS
VL: DIQMTQSPSSLSASVGDRVTITCSVSSSVFYVHWYQQKPGKAPKLLIYDTSKLASGVPSRFSGSGSGTDFTFTISSLQPEDIATYYCQQWNSNPPTFGGGTKVEIK
B4: hHC4-07 / hLC4-e (antibody, V domains shown)
VH: EVQLLESGGGLVQPGGSLRLSCAASGFTFNSYAMSWVRQAPGKGLEWVSTISSGGSYTYYPDSVKGRFTISRDNSKNTLYLQMNSLRAEDTAVYYCAKHPDYDGVWFAYWGQGTLVTVSS
VL: DIQMTQSPSSLSASVGDRVTITCSVSSSVFYVHWYQQKPGKAPKLLIYDTSKLASGVPSRFSGSGSGTDFTFTISSLQPEDIATYYCQQWNSNPPTFGGGTKVEIK
B5: hHC4-07 / hLC4-f (antibody, V domains shown)
VH: EVQLLESGGGLVQPGGSLRLSCAASGFTFNSYAMSWVRQAPGKGLEWVSTISSGGSYTYYPDSVKGRFTISRDNSKNTLYLQMNSLRAEDTAVYYCAKHPDYDGVWFAYWGQGTLVTVSS
VL: DIQMTQSPSSLSASVGDRVTITCSVSSSVFYVHWYQQKPGKAPKLLIYDTSKLASGVPSRFSGSGSGTDYTFTISSLQPEDIATYYCQQWNSNPPTFGGGTKVEIK
B6: hHC4-H / hLC4-f (antibody, V domains shown)
VH: EVQLVESGGGLVQPGGSLRLSCAASGFTFNSYGMSWVRQAPGKGLEWVATISSGGSYKYYVDSVKGRFTISRDNAKNSLYLQMNSLRAEDTAVYYCARHPDYDGVWFAYWGQGTLVTVSS
VL: DIQMTQSPSSLSASVGDRVTITCSVSSSVFYVHWYQQKPGKAPKLLIYDTSKLASGVPSRFSGSGSGTDYTFTISSLQPEDIATYYCQQWNSNPPTFGGGTKVEIK
notes: also called Humanized CUB4 Antibody No. 146
B7: hHC4-03 / hLC4-f (antibody, V domains shown)
VH: EVQLLESGGGLVQPGGSLRLSCAASGFTFNSYGMSWVRQAPGKGLEWVSAISSGGSYTYYPDSVKGRFTISRDNSKNTLYLQMNSLRAEDTAVYYCAKHPDYDGVWFAYWGQGTLVTVSS
VL: DIQMTQSPSSLSASVGDRVTITCSVSSSVFYVHWYQQKPGKAPKLLIYDTSKLASGVPSRFSGSGSGTDYTFTISSLQPEDIATYYCQQWNSNPPTFGGGTKVEIK
B8: hHC4-04 / hLC4-f (antibody, V domains shown)
VH: EVQLLESGGGLVQPGGSLRLSCAASGFTFNSYGMSWVRQAPGKGLEWVSTISSGGSYTYYPDSVKGRFTISRDNSKNTLYLQMNSLRAEDTAVYYCARHPDYDGVWFAYWGQGTLVTVSS
VL: DIQMTQSPSSLSASVGDRVTITCSVSSSVFYVHWYQQKPGKAPKLLIYDTSKLASGVPSRFSGSGSGTDYTFTISSLQPEDIATYYCQQWNSNPPTFGGGTKVEIK

The target in the experiment is T1, Soluble CDCP1 extracellular domain …. In words: ELISA on captured SBP-CDCP1-ECD, ratio relative to chimeric CUB4 (chHC4). Here is the method:
Soluble CDCP1 extracellular domain (CDCP1-ECD) (SEQ ID NO:30) fused to Streptavidin Binding Protein (SBP) was captured on a sreptavidine plate. To define optimal binding of the antibody to SBP-CDCP1-ECD, 384-well polystyrene plates (NUNC, streptavidin-coated) delivered by MicroCoat, Bernried, Germany (ID-No. 1734776-001) have been coated with pure and stepwise diluted HEK293 supernatant (in BSA/IMDM buffer: 100 mg/ml BSA Fraction V, Roche 10735078001, dissolved in Iscove's Modified Dulbeccos Medium). Using a calibration curve of mouse CUB4 antibodies the optimal dilution factor of the HEK293 supernatant in relation to the streptavidin binding capacity of the microtiter plate was identified. For the standard coating, SBP-CDCP1-ECD containing HEK293 supernatant was diluted (between 1:15 and 1:40) and incubated overnight at 2-8° C. (25 μl per well). Intensive washing of the microtiter plate is necessary to remove remaining unbound SBP-CDCP1-ECD.
Humanized CUB4 antibodies and/or reference antibody (chimeric (chHC4) CUB4 antibody comprising human constant region and mouse VH and VL of SEQ ID NO:1 and 2) were tested either undiluted or using a 12-step-dilution. 12.5 μl per well of each sample was incubated for 90 min at room temperature. After intensive washing using PBS-T (0.1% Tween 20 in PBS) 25 μl of either goat anti-human IgG antibodies coupled with HRP (Jackson ImmunoResearch, Code No: 109-036-098, dilution 1:10000) for human antibodies were added and incubated for 1 hour. After intensive washing the binding of the antibodies was detected with ABTS tablets (Roche Diagnostics GmbH, Cat. No.: 1112422). Absorbance at 405 nm/492 nm was measured using a standard photometer.
(An ELISA detects its analyte on a solid surface through an enzyme-linked reagent.)
Regarding B1, the relative binding ratio is 0.46.

In the case of B2, the relative binding ratio amounted to 0.2. On to B3, for which the relative binding ratio worked out at 0.07. Take B4: the relative binding ratio is 0.07. As for B5, the relative binding ratio was determined as 0.07. B6: the relative binding ratio was 0.42.

In the case of B7, the relative binding ratio turned out to be 0.07.

For B8, the relative binding ratio was 0.37.

(Values after patent publication US20110052582A1 (Hoffmann-La Roche, published 2011).)
